Assay results published in the supplement of paper PMC9732359.
± gives the uncertainty stated by the source.

Assay: protein stability index of a GFP-peptide fusion (yeast GPS) (PSI 1-4); higher = more stable; sorted into four equal gates, so the index is relative within each strain
Details: pdr5∆
Procedure, shortened: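 Plasmids in a pooled yeast library fused tiled 17-residue yeast protein peptides downstream of GFP and also expressed Cherry. Mid-log cultures grown without leucine were sorted into four equal gates by GFP/Cherry fluorescence ratio. Each gate's plasmids were PCR-amplified and Illumina-sequenced, and reads were matched to strains by barcodes. The protein stability index is derived by multiplying each gate's read frequency by its gate number and summing the results.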

| Sequence | protein stability index |
| --- | --- |
| KIPEREEKSNEVKTPKI [SIR4] | 3.24 ± 0.21 |
| KIQFHIHFADVAHITTK [RGR1] | 2.95 ± 0.087 |
| KISNSKLLSLLRSKTSA [SIR4] | 2.45 ± 0.044 |

Same assay, conditions: san1∆

| Sequence | protein stability index |
| --- | --- |
| ISNGTINIQKKLEPKEI [SIR4] | 2.37 ± 0.089 |
| ISNLTQEQVQDYVNKTN [FAS1] | 2.82 ± 0.057 |
| ISSAKLDKFTDGGLFTL [QCR2] | 3.23 ± 0.088 |
| ISSLFTITTILILGLNT [YML103C/NUP188] | 1.46 ± 0.2 |
| ISTPIINAVLVNDNDER [RPO31] | 2.31 ± 0.12 |
| ISYLQEVQCTSTPYLEI [PCI8] | 1.7 ± 0.2 |
| ITKMLASDESLLRYGGA [RPN2] | 3.23 ± 0.11 |
| ITLLTRQRELLIAHQRS [GRR1] | 2.01 ± 0.045 |
| ITLRTSGELLQGIVRVY [MCD1] | 2.48 ± 0.066 |
| ITNKHQEGLAKFGACVA [RPN2] | 2.54 ± 0.092 |
| ITSDALEGITTTIDSLN [SMC3] | 2.9 ± 0.08 |
| ITSIPKPLTENCKKKKK [RMP1] | 2.05 ± 0.085 |
| ITVVPVVAAAEDDDNEQ [QCR6] | 1.72 ± 0.12 |
| IVAALPISEKGLTLSTT [RPP1] | 2.65 ± 0.057 |
| IVDDKQEMIDILETIFR [DIB1] | 3.02 ± 0.22 |
| IVDGKLKTEKIFKEINE [FAS1] | 1.91 ± 0.11 |
| IVFDICQILDGELDVLQ [PRP8] | 2.39 ± 0.1 |
| IVKFKQKEEGRSFTKAI [YLR335W/NUP2] | 3.24 ± 0.05 |
| IVLGVKDLQENLLVLRG [RPO21] | 2.87 ± 0.059 |
| IVLIKGISSAYIKSATL [SNU114] | 2.5 ± 0.07 |
| IVPGTYIQERNPTQRPQ [RPS10A] | 3.05 ± 0.037 |
| IWFPEDFISPELIIDKV [MED1] | 3.01 ± 0.075 |
| IWLIKCCYFIEWKSNHK [SRB8] | 2.55 ± 0.063 |
| IYAKQQEQLKQMDQQLQ [ARP7] | 2.2 ± 0.1 |

| Sequence | protein stability index |
| --- | --- |
| IYINKSVPTNSADAPNP [RET1] | 3.31 ± 0.049 |
| IYNGKAFNQVEIRPEML [RPS15] | 3.39 ± 0.11 |
| IYNSTDSNSEILNFLNQ [YML103C/NUP188] | 2.71 ± 0.055 |
| IYPRTVIDIEIHVLEQD [SKI6] | 1.6 ± 0.15 |
| KAANFIQNQSPQFNSPY [SWI1] | 2.37 ± 0.065 |
| KACKTADKLVNVTQNEQ [SRP68] | 3 ± 0.073 |
| KAEFSKEMTLQKNMNDL [YIL149C/MLP2] | 3.23 ± 0.09 |
| KAEKKVELHGKRKLDIG [PRP8] | 3.13 ± 0.16 |
| KAELIKPIQNGEIIDIS [ARP9] | 3.33 ± 0.067 |
| KAGGECITLDQLAVRAP [RPL18A] | 2.86 ± 0.072 |
| KAINQELEDVAVKKLYA [YCS4] | 2.72 ± 0.07 |
| KAKKLIQSLPPTLKVNR [RPL38] | 2.02 ± 0.048 |
| KAKRAKTGSASTVKGSV [TAF14] | 2.77 ± 0.16 |
| KAKRSNLYTPKAEMPPE [PRP8] | 2.84 ± 0.063 |
| KAMSSRAGVSQVLNRYT [RPB2] | 2.97 ± 0.073 |
| KANEKKESDESKSAFSF [YJL041W/NSP1] | 3.18 ± 0.042 |
| KARNGLDYVRTPAAATS [SNF2] | 2.12 ± 0.08 |
| KDDGAFVKFLSKKGSLE [RPL10] | 3.06 ± 0.068 |
| KDHDLKIPLPEVHDLIG [POP1] | 2.73 ± 0.21 |
| KDILVKTGITKKDEDEE [PRE9] | 2.58 ± 0.23 |
| KDKTKNISAEIIRHEKE [SMC4] | 2.99 ± 0.086 |
| KDLKFPLPHRVQKSTKT [RPL20A] | 2.58 ± 0.052 |
| KDNAKISNNLALVFAAL [SRP68] | 1.97 ± 0.066 |
| KDRIIDERTKEFEKKLQ [YIL149C/MLP2] | 2.94 ± 0.086 |

| Sequence | protein stability index |
| --- | --- |
| KEALLGQLLKDHLIIEP [ARP9] | 1.18 ± 0.16 |
| KEALQNNIFKEFTSKIG [SMC1] | 2.52 ± 0.11 |
| KEAVFKSLGVKSLGGGA [FAS2] | 3.25 ± 0.069 |
| KEEFIMMVNISVLISIP [PCI8] | 1.57 ± 0.074 |
| KEEFSSAENRDEKDYLT [CSE2] | 2.65 ± 0.065 |
| KEKEAAESPEEADVEMS [PUP2] | 2.99 ± 0.076 |
| KEKIKGLQDEIMKIGGI [SMC4] | 3.17 ± 0.049 |
| KELDQELIIDPLFKKAL [BRN1] | 3.13 ± 0.11 |
| KELFGEDEDEDLFGDSN [SSN2] | 3.21 ± 0.27 |
| KELNEKIQKLEEDDEGE [RPN7] | 1.25 ± 0.15 |
| KELVECHLYSQRMHAIH [NNF1] | 2.05 ± 0.085 |
| KEMTLQKNMNDLLRSQL [YIL149C/MLP2] | 2.19 ± 0.082 |
| KENGQLIGAATKFKGGK [SEC65] | 1.54 ± 0.11 |
| KEQADIYAKQQEQLKQM [ARP7] | 1.78 ± 0.14 |
| KERKLRENIAMLKRFFP [SMC1] | 2.65 ± 0.23 |
| KERLVRDKKEKKQAQKQ [SMB1] | 2.82 ± 0.14 |
| KERNSLKKLKAMNDACY [BRR2] | 2.98 ± 0.051 |
| KERTKSLEHELKRSTEL [YIL149C/MLP2] | 2.47 ± 0.12 |
| KESDLLEETRTTIGDTT [BRN1] | 2.99 ± 0.053 |
| KETTIEKLSSEIENLDK [YIL149C/MLP2] | 2.9 ± 0.063 |
| KEYELLTLQEDYIKDEQ [RPT3] | 3.19 ± 0.083 |
| KEYENHSGELMRQQSKE [SMC1] | 2.9 ± 0.05 |
| KFANQLHDEYLVSMRYP [RPN3] | 2.43 ± 0.081 |
| KFGYILCVLDYDNIDIQ [RPB7] | 3.13 ± 0.11 |

| Sequence | protein stability index |
| --- | --- |
| KFMELERKTLERQQENL [SWI3] | 3.06 ± 0.09 |
| KFNKSKAKFTSLAVRSL [YCS4] | 1.96 ± 0.067 |
| KFPETSYPILNESSTFL [SIN4] | 2.58 ± 0.042 |
| KFSDLKFILQILQILNL [YML103C/NUP188] | 3.48 ± 0.13 |
| KGDRALLVKLSKRLPLR [BRR2] | 2.34 ± 0.094 |
| KGEQIAIFPYQDPIFGS [ECM29] | 2.37 ± 0.067 |
| KGEVVLVNIRTQTSKEQ [ITC1] | 2.58 ± 0.1 |
| KGEVYTIPLGGSVHKLP [PRE3] | 2.84 ± 0.088 |
| KGNFRTKPFENVEKYPT [SNU114] | 3.16 ± 0.25 |
| KGNLLEGKKVMAPYLPG [RPN2] | 2.03 ± 0.068 |
| KGSRFISTLQVKLYGRE [RPB2] | 2.58 ± 0.089 |
| KGVYLILSEILCQINKC [YML103C/NUP188] | 2.23 ± 0.075 |
| KHGAKKVAKRTKIKPFI [RPL27A] | 2.95 ± 0.059 |
| KHISASIDNDFSEEKAE [YAR002W/NUP60] | 3.23 ± 0.066 |
| KHITVRLTAKRLIEHDP [SRP14] | 2.51 ± 0.064 |
| KHYLEDKLKVYKQAMNE [SNF5] | 3.1 ± 0.1 |
| KIEGCISQVSSIHAIGS [RPB7] | 2.11 ± 0.1 |
| KIHLYEKKLEDYCRILS [YGL172W/NUP49] | 2.3 ± 0.13 |
| KIIDNPKSFLKKDQSVL [YMR129W/POM152] | 3.07 ± 0.071 |
| KIKFDESSKLMTVTKVS [BRR2] | 1.5 ± 0.2 |
| KIPDTYTANTSAQSIAS [YAR002W/NUP60] | 2.07 ± 0.059 |
| KIPEREEKSNEVKTPKI [SIR4] | 3.46 ± 0.21 |
| KIQFHIHFADVAHITTK [RGR1] | 2.83 ± 0.07 |
| KISNSKLLSLLRSKTSA [SIR4] | 2.3 ± 0.08 |
